Results: article PMC10030467 (Nature Communications, 2023)
Values joined by “and” are separate entries in the source; they are usually repeats but may differ in a detail not shown here. Equal values may be shown once.

Legend:
[1] = biological target: KAP1/TRIM28 (Homo sapiens) (UniProt Q13263); settings: cited from earlier work
[2] = biological target: the molecule itself; test: AUC + SEC-MALS; deletion constructs of TRIM72 in solution; 20 mM Tris-HCl pH 8.0, 200 mM NaCl, 0.3 mM TCEP
[3] = biological target: the molecule itself; test: AUC; sedimentation velocity, lower protein concentrations of the series 1-50 μM; 20 mM Tris-HCl pH 8.0, 200 mM NaCl, 0.3 mM TCEP, 20 °C; monomers to dimer
[4] = biological target: the molecule itself; test: AUC; sedimentation velocity, increasing protein concentration (1, 2, 10, 20, 50 μM); 20 mM Tris-HCl pH 8.0, 200 mM NaCl, 0.3 mM TCEP, 20 °C; SEDPHAT self-association; dimers to tetramer (and hexamer)
[5] = biological target: the molecule itself; test: SEC-MALS; point mutants, 100 μL at 1 mg/mL; Superdex 200 increase, 20 mM Tris-HCl pH 8.0, 200 mM NaCl, 0.3 mM TCEP
[6] = biological target: the molecule itself; test: cross-linking; disulfide bonds by oxidation: about 20 μM protein with 0-0.3% H2O2, 4 °C, 30 min, 20 mM Tris-HCl pH 8.0, 200 mM NaCl, 0.3 mM TCEP; non-reducing PAGE

Molecule: KAP1/TRIM28 (from UniProt Q13263)
- Kd [1]: 10 µM

B1: TRIM72^ΔSPRY (2-287) (domain or fragment, human, UniProt Q6ZMU5-1 2-287, looked up)
chain: SAAPGLLHQELSCPLCLQLFDAPVTAECGHSFCRACLGRVAGEPAADGTVLCPCCQAPTRPQALSTNLQLARLVEGLAQVPQGHCEEHLDPLSIYCEQDRALVCGVCASLGSHRGHRLLPAAEAHARLKTQLPQQKLQLQEACMRKEKSVAVLEHQLVEVEETVRQFRGAVGEQLGKMRVFLAALEGSLDREAERVRGEAGVALRRELGSLNSYLEQLRQMEKVLEEVADKPQTEFLMKYCLVTSRLQKILAESPPPARLDIQLPIISDDFKFQVWRKMFRALMPA
notes: TRIM72, human, residues 2-287 (RING, B-box, coiled-coil); source: E. coli Rosetta (DE3), purified; not shown: His-Sumo, N-terminal, cleaved
- stoichiometry N [2]: 2

B2: full-length human TRIM72 protein (2-477) (natural protein, UniProt Q6ZMU5-1 2-477, looked up)
chain: SAAPGLLHQELSCPLCLQLFDAPVTAECGHSFCRACLGRVAGEPAADGTVLCPCCQAPTRPQALSTNLQLARLVEGLAQVPQGHCEEHLDPLSIYCEQDRALVCGVCASLGSHRGHRLLPAAEAHARLKTQLPQQKLQLQEACMRKEKSVAVLEHQLVEVEETVRQFRGAVGEQLGKMRVFLAALEGSLDREAERVRGEAGVALRRELGSLNSYLEQLRQMEKVLEEVADKPQTEFLMKYCLVTSRLQKILAESPPPARLDIQLPIISDDFKFQVWRKMFRALMPALEELTFDPSSAHPSLVVSSSGRRVECSEQKAPPAGEDPRQFDKAVAVVAHQQLSEGEHYWEVDVGDKPRWALGVIAAEAPRRGRLHAVPSQGLWLLGLREGKILEAHVEAKEPRALRSPERRPTRIGLYLSFGDGVLSFYDASDADALVPLFAFHERLPRPVYPFFDVCWHDKGKNAQPLLLVGPEGAEA
notes: TRIM72 (MG53), human, residues 2-477; open reading frame of GenBank NM_001008274.4; A dimer in solution at low concentration; the RING domain is not seen in the crystal structure although the full-length protein was crystallised; also called MG53; Tripartite Motif Protein 72; source: E. coli Rosetta (DE3), purified (nickel column, Source Q, Superdex 200 increase); not shown: His-Sumo, N-terminal, …
- stoichiometry N [3]: 2
- Kd [4]: ~780 µM
- stoichiometry N [4]: 4 and 6

B3: TRIM72 R220E (natural protein, human, UniProt Q6ZMU5-1 2-477, looked up)
chain: SAAPGLLHQELSCPLCLQLFDAPVTAECGHSFCRACLGRVAGEPAADGTVLCPCCQAPTRPQALSTNLQLARLVEGLAQVPQGHCEEHLDPLSIYCEQDRALVCGVCASLGSHRGHRLLPAAEAHARLKTQLPQQKLQLQEACMRKEKSVAVLEHQLVEVEETVRQFRGAVGEQLGKMRVFLAALEGSLDREAERVRGEAGVALRRELGSLNSYLEQLEQMEKVLEEVADKPQTEFLMKYCLVTSRLQKILAESPPPARLDIQLPIISDDFKFQVWRKMFRALMPALEELTFDPSSAHPSLVVSSSGRRVECSEQKAPPAGEDPRQFDKAVAVVAHQQLSEGEHYWEVDVGDKPRWALGVIAAEAPRRGRLHAVPSQGLWLLGLREGKILEAHVEAKEPRALRSPERRPTRIGLYLSFGDGVLSFYDASDADALVPLFAFHERLPRPVYPFFDVCWHDKGKNAQPLLLVGPEGAEA
notes: TRIM72, human, residues 2-477, point mutant; source: E. coli Rosetta (DE3), purified; not shown: His-Sumo, N-terminal, cleaved
- stoichiometry N [5]: 2

B4: TRIM72 I95A (natural protein, human, UniProt Q6ZMU5-1 2-477, looked up)
chain: SAAPGLLHQELSCPLCLQLFDAPVTAECGHSFCRACLGRVAGEPAADGTVLCPCCQAPTRPQALSTNLQLARLVEGLAQVPQGHCEEHLDPLSAYCEQDRALVCGVCASLGSHRGHRLLPAAEAHARLKTQLPQQKLQLQEACMRKEKSVAVLEHQLVEVEETVRQFRGAVGEQLGKMRVFLAALEGSLDREAERVRGEAGVALRRELGSLNSYLEQLRQMEKVLEEVADKPQTEFLMKYCLVTSRLQKILAESPPPARLDIQLPIISDDFKFQVWRKMFRALMPALEELTFDPSSAHPSLVVSSSGRRVECSEQKAPPAGEDPRQFDKAVAVVAHQQLSEGEHYWEVDVGDKPRWALGVIAAEAPRRGRLHAVPSQGLWLLGLREGKILEAHVEAKEPRALRSPERRPTRIGLYLSFGDGVLSFYDASDADALVPLFAFHERLPRPVYPFFDVCWHDKGKNAQPLLLVGPEGAEA
notes: TRIM72, human, residues 2-477, point mutant in the B-box; also called I95A mutant; source: E. coli Rosetta (DE3), purified; not shown: His-Sumo, N-terminal, cleaved
- Kd [4]: ~2200 µM

B5: TRIM72 C242S (natural protein, human, UniProt Q6ZMU5-1 2-477, looked up)
chain: SAAPGLLHQELSCPLCLQLFDAPVTAECGHSFCRACLGRVAGEPAADGTVLCPCCQAPTRPQALSTNLQLARLVEGLAQVPQGHCEEHLDPLSIYCEQDRALVCGVCASLGSHRGHRLLPAAEAHARLKTQLPQQKLQLQEACMRKEKSVAVLEHQLVEVEETVRQFRGAVGEQLGKMRVFLAALEGSLDREAERVRGEAGVALRRELGSLNSYLEQLRQMEKVLEEVADKPQTEFLMKYSLVTSRLQKILAESPPPARLDIQLPIISDDFKFQVWRKMFRALMPALEELTFDPSSAHPSLVVSSSGRRVECSEQKAPPAGEDPRQFDKAVAVVAHQQLSEGEHYWEVDVGDKPRWALGVIAAEAPRRGRLHAVPSQGLWLLGLREGKILEAHVEAKEPRALRSPERRPTRIGLYLSFGDGVLSFYDASDADALVPLFAFHERLPRPVYPFFDVCWHDKGKNAQPLLLVGPEGAEA
notes: as for B3
- binding result [6]: binds

B6: TRIM72 C144S (natural protein, human, UniProt Q6ZMU5-1 2-477, looked up)
chain: SAAPGLLHQELSCPLCLQLFDAPVTAECGHSFCRACLGRVAGEPAADGTVLCPCCQAPTRPQALSTNLQLARLVEGLAQVPQGHCEEHLDPLSIYCEQDRALVCGVCASLGSHRGHRLLPAAEAHARLKTQLPQQKLQLQEASMRKEKSVAVLEHQLVEVEETVRQFRGAVGEQLGKMRVFLAALEGSLDREAERVRGEAGVALRRELGSLNSYLEQLRQMEKVLEEVADKPQTEFLMKYCLVTSRLQKILAESPPPARLDIQLPIISDDFKFQVWRKMFRALMPALEELTFDPSSAHPSLVVSSSGRRVECSEQKAPPAGEDPRQFDKAVAVVAHQQLSEGEHYWEVDVGDKPRWALGVIAAEAPRRGRLHAVPSQGLWLLGLREGKILEAHVEAKEPRALRSPERRPTRIGLYLSFGDGVLSFYDASDADALVPLFAFHERLPRPVYPFFDVCWHDKGKNAQPLLLVGPEGAEA
notes: as for B3
- binding result [6]: binds

B7: TRIM72^ΔRING (84-477) (domain or fragment, human, UniProt Q6ZMU5-1 84-477, looked up)
chain: GHCEEHLDPLSIYCEQDRALVCGVCASLGSHRGHRLLPAAEAHARLKTQLPQQKLQLQEACMRKEKSVAVLEHQLVEVEETVRQFRGAVGEQLGKMRVFLAALEGSLDREAERVRGEAGVALRRELGSLNSYLEQLRQMEKVLEEVADKPQTEFLMKYCLVTSRLQKILAESPPPARLDIQLPIISDDFKFQVWRKMFRALMPALEELTFDPSSAHPSLVVSSSGRRVECSEQKAPPAGEDPRQFDKAVAVVAHQQLSEGEHYWEVDVGDKPRWALGVIAAEAPRRGRLHAVPSQGLWLLGLREGKILEAHVEAKEPRALRSPERRPTRIGLYLSFGDGVLSFYDASDADALVPLFAFHERLPRPVYPFFDVCWHDKGKNAQPLLLVGPEGAEA
notes: TRIM72, human, residues 84-477 (B-box, coiled-coil, SPRY); also called RING deletion; source: E. coli Rosetta (DE3), purified; not shown: His-Sumo, N-terminal, cleaved
- stoichiometry N [2]: 2

B8: TRIM72^ΔRING-B-box (122-477) (domain or fragment, human, UniProt Q6ZMU5-1 122-477, looked up)
chain: AAEAHARLKTQLPQQKLQLQEACMRKEKSVAVLEHQLVEVEETVRQFRGAVGEQLGKMRVFLAALEGSLDREAERVRGEAGVALRRELGSLNSYLEQLRQMEKVLEEVADKPQTEFLMKYCLVTSRLQKILAESPPPARLDIQLPIISDDFKFQVWRKMFRALMPALEELTFDPSSAHPSLVVSSSGRRVECSEQKAPPAGEDPRQFDKAVAVVAHQQLSEGEHYWEVDVGDKPRWALGVIAAEAPRRGRLHAVPSQGLWLLGLREGKILEAHVEAKEPRALRSPERRPTRIGLYLSFGDGVLSFYDASDADALVPLFAFHERLPRPVYPFFDVCWHDKGKNAQPLLLVGPEGAEA
notes: TRIM72, human, residues 122-477 (coiled-coil and SPRY); also called CC-SPRY; source: E. coli Rosetta (DE3), purified; not shown: His-Sumo, N-terminal, cleaved
- stoichiometry N [2]: 2
